Measured values taken from patent US20230220104A1 (BRIGHTPATH BIOTHERAPEUTICS, published 2023).
Where a chain is given by its changes, count along the chain named. Like-named read-outs stand apart in the source and are kept apart here.

Legend:
[1] = target: T1, human CD73 on cells (H322, MDA-MB-231, HT-144, T cells, CD73-transfected HEK293T) (human, UniProt P21589 27-549); assay: cell-based or functional assay
T1 sequence (looked up): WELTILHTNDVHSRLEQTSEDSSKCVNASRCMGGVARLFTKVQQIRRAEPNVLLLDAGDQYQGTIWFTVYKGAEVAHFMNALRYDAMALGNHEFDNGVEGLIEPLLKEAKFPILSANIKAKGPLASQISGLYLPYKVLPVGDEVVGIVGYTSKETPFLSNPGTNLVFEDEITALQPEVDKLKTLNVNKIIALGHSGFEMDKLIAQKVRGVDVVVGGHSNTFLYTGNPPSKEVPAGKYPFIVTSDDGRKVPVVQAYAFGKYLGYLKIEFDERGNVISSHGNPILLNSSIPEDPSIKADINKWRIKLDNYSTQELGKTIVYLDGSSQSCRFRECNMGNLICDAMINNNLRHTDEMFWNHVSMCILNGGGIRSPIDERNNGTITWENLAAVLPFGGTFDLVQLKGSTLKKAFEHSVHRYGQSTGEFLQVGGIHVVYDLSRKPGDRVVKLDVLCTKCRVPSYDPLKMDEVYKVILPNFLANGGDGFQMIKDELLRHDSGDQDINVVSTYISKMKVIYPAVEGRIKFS

[2] = target: T2, cynomolgus CD73 (Biacore analyte) (cynomolgus, UniProt A0A2K5V5U7 27-547); assay: SPR, Biacore 8K, antibody captured on CM5 chip, CD73 as analyte, multicycle kinetics, 1:1 model
T2 sequence: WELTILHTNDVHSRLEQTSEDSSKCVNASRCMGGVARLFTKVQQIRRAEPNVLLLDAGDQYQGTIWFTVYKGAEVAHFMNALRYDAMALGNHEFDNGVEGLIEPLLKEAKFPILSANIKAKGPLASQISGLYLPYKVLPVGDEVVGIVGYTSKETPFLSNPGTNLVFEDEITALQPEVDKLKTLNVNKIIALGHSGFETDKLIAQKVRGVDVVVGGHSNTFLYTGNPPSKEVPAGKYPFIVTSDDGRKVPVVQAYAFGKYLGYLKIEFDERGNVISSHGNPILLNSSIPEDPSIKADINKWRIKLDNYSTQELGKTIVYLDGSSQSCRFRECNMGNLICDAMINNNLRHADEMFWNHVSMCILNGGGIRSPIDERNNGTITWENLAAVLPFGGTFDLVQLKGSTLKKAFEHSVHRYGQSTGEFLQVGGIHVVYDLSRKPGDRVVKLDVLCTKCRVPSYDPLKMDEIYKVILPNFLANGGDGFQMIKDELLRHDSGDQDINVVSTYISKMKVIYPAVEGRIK

[3] = target: T3, human CD73 antigen (Biacore analyte) (human, UniProt P21589 27-547, limits assumed); assay: as above
T3 sequence (looked up): T2 sequence with T199M, A350T, I466V

[4] = target: T1, human CD73 on cells (H322, MDA-MB-231, …); assay: cell-based or functional assay; remark: listed apart in the source
[5] = target: T1, human CD73 on cells (H322, MDA-MB-231, …); assay: cell-based or functional assay; remark: listed apart in the source
[6] = target: T1, human CD73 on cells (H322, MDA-MB-231, …); assay: flow cytometry on H322 cells (endogenous CD73), fluorescently labeled secondary antibody, PE channel
[7] = target: T1, human CD73 on cells (H322, MDA-MB-231, …); assay: flow cytometry on MDA-MB-231 cells (endogenous CD73), fluorescently labeled secondary antibody, PE channel

B1: 002_m antibody (antibody, V domains shown)
VH: QVQMKQSGPELVKPGASVKIPCKASGYTFTDCNMDWVKQSHGESLEWIGDINPNNGGTIYNQKFKGKVTLTIDKSSSTAYMELRSLTSEDTAVYYCARTNWDYAMDYWGQGTSVTVSS
VL: DIQMTQSPSSMYASLGERVTITCKASQDINSNLSWFQQKPGKSPKTLIYRANRLIDGVPSRFSGSGSGQDYSLTISSLEYEDMGIYYCLQYDVFPRTFGGGTKLELK
Question: For B1, which “IC50 of AMP degradation suppressive function, H322 cells” value [1] is on record?
Answer: The value was 0.089 µg/mL.

B2: 002_6_h4 antibody (antibody, V domains shown)
VH: QVQMKQSAAEVRKPGASVKVSCKASGYTFTDSNMDWVRQAPGQGLEWMGDINPNNGGTIYNQKFKGRVTMTIDTSRSTAYMELRSLRSDDTAVYYCARTNWDYAMDYWGQGTTVTVSS
VL: DIQMTQSPSFLSASVGDRVTITCKASQDINSQLSWYQQKPGKAPKTLIYRANRLIDGVPSRFSGSGSGTDFTLTISSLQYEDMATYYCLQYDVFPRTFGGGTKLEIK
notes: Humanized antibody of 002_6_c; also called humanized anti-CD73 antibody 002_6_h4; lead antibody
Question: What does the source list for B2?
Answer: Kd [2]: 0.273 nM; Kd [3]: 0.204 nM; IC50 of AMP degradation suppressive function, MDA-MB-231 cells [4]: 0.032 µg/mL; IC50 of AMP degradation suppressive function, H322 cells [5]: 0.069 µg/mL

B3: 005_m antibody (antibody, V domains shown)
VH: DVQLVESGPGLVAPSQSLSITCTVSGFSLTSYGVSWVRQPPGKGLEWLGVIWGDGSTNYHSALISRLSISKDNSKSQVFLKLNSLQTDDTATYYCAKTNIFYDYDWYLDVWGAGTTVTVSS
VL: DIVMTQAPLSLPVSLGDQASISCRSSQSLVHSNGNTYLHWYLQKPGQSPKLLIYKVSNRFSGVPDRFSGSGSGTDFTLKISRVEAEDLGVYFCSHSTHVPWTFGGGTKLELK
notes: Mouse antibody expressed recombinantly in CHO cells
Question: Does B3 bind [6]?
Answer: Result: binds

B4: 009_m antibody (antibody, V domains shown)
VH: QVQLQQSGAELVRPGASVKLSCKASGYTFTSYWMNWVKQRPEPGLEWIGRIDPYDSEAHYNQKFKDKAILTVDKSSSTAYMQLSSLTSEDSAVYYCTRIRYGTFDYWGQGTTLTVSS
VL: DIVLTQSPSSMYASLGERVTITCKASQDINSYLSWFQQKPGKSPKTLIYRSNSLVDGVPSRFSGSGSGQDYSLTISSLEYEDMGSYYCLQYDEFPYTFGGGTRLEIKR
notes: as for B3
Question: Does B4 bind [7]?
Answer: Result: binds

B5: 006_hKB antibody (antibody, V domains shown)
VH: QVQLLQSGAEVKKPGESVKISCKASGYTFTSYWMHWVKQRPGQGLEWIGEINPSNARTNYNENFKSRFTITVDKSTSTAYMQFSRLRSDDTAVYYCARRGTSGNYFDFWGQGTMLTVSS
VL: DIQMTQSPSSLSASLGQRVTITCKASQDINTYLSWFQQKPGKPPKTLIYRANRLVDGVPSRFSGSGSGEDYSLTISSLQSEDFGVYYCLQYDEFPYTFGPGTRLEIK
notes: Humanized antibody based on 006_m
Question: Which results are given for B5?
Answer: Kd [2]: 0.457 nM; Kd [3]: 0.426 nM
